Consider four molecules from US20020150993A1 (Genentech, published 2002).

The labels stand for the following.
B1: CD95 immunoadhesin (Fc fusion, UniProt P25445 26-173, looked up)
chain: QVTDINSKGLELRKTVTTVETQNLEGLHHDGQFCHKPCPPGERKARDCTVNGDEPDCVPCQEGKEYTDKAHFSSKCRRCRLCDEGHGLEVEINCTRTQNTKCRCKPNFFCNSTVCEHCDPCTKCEHGIIKECTLTSNTKCKEEGSRSN
notes: extracellular domain; also called Fas-IgG; CD95-IgG; not shown: hinge and Fc portion of human IgG, as described in Ashkenazi et al. 1991
B2: full-length DNA19355 polypeptide on cells (ligand)
chain: MCLSHLENMPLSHSRTQGAQRSSWKLWLFCSIVMLLFLCSFSWLIFIFLQLETAKEPCMAKFGPLPSKWQMASSEPPCVNKVSDWKLEILQNGLYLIYGQVAPNANYNDVAPFEVRLYKNKDMIQTLTNKSKIQNVGGTYELHVGDTIDLIFNSEHQVLKNNTYWGIILLANPQFIS
notes: also called DNA19355 ligand; polypeptide encoded by DNA19355-1150

Assay [1] deals with B2. Kind of assay: FACS on HUVEC (endogenous DNA19355 transcripts). As for the experimental part: (§1) The DNA19355 polypeptide was identified in a human umbilical vein endothelial cell (HUVEC) library, and the DNA19355 polypeptide transcripts are readily detectable in HUVEC by RT-PCR (data not shown). […] HUVEC were purchased from Cell Systems (Kirkland, Wash.) and grown in a 50:50 mix of Ham's F12 and Low Glucose DMEM media containing […] fetal bovine serum, 2 mM L-glutamine, 10 mM Hepes, and 10 ng/ml basic FGF. Cells were FACS sorted with PBS, PRO364-IgG, TNFR1-IgG or Fas-IgG as a primary antibody and goat anti-human F(ab′)2 conjugated to phycoerythrin (CalTag, Burlingame, Calif.).

For assay [2], the target named is T1, TNFR1 immunoadhesin (human, UniProt P19438 30-211, limits assumed).
T1 construct: extracellular domain; also called TNFR1-IgG; not shown: hinge and Fc portion of human IgG, as described in Ashkenazi et al. 1991
T1 sequence (looked up): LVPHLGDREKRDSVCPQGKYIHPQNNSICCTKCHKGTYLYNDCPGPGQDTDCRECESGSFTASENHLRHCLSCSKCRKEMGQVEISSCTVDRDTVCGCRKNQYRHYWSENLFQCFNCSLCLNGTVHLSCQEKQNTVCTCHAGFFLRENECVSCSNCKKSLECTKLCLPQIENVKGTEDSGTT
The assay can be described thus: FACS on HUVEC (endogenous DNA19355 transcripts). Here is the method:
as §1

For assay [3], the target named is T2, DR5 immunoadhesin (human, UniProt O14763 56-210, limits assumed).
T2 construct: extracellular domain; also called DR5-IgG; Apo-2; not shown: hinge and Fc portion of human IgG, as described in Ashkenazi et al. 1991
The assay can be described thus: co-precipitation with protein A-sepharose, SDS-PAGE, autoradiography. As for the experimental part:
(§2) The soluble DNA19355 ECD molecule was then labeled with […], for testing its ability to interact with the PRO364 immunoadhesin. For comparison, immunoadhesin constructs were also made of the following TNF receptor family members: CD95, DR4, DR5, TNFR1, TNFR2, and Apo-3. CD95, DR4, DR5, TNFR1, TNFR2, and Apo-3 immunoadhesins were prepared by fusing each receptor's ECD to the hinge and Fc portion of human IgG, as described previously for TNFR1 [Ashkenazi et al., Proc. Natl. Acad. Sci., 88:10535-10539 (1991)]. The respective TNF receptor family members are described (and relevant references cited) in the Background of the Invention section.
(§3) For the co-precipitation assay, each immunoadhesin (5 microgram) was incubated with ¹²⁵I-labeled soluble DNA19355 polypeptide (1 microgram) for 1 hour at 24° C., followed by protein A-sepharose for 30 minutes on ice. The reaction mixtures were spun down and washed several times in PBS, boiled in SDS-PAGE buffer containing 20 mM dithiothreitol and then resolved by SDS-PAGE and autoradiography.

The target of assay [4] is T1, TNFR1 immunoadhesin. The assay is described as above. Here is the method: as §2, §3
Assay [5] has as its target T3, TNFR2 immunoadhesin (human, UniProt P20333 23-257, limits assumed).
T3 construct: extracellular domain; also called TNFR2-IgG; not shown: hinge and Fc portion of human IgG, as described in Ashkenazi et al. 1991
T3 sequence (looked up): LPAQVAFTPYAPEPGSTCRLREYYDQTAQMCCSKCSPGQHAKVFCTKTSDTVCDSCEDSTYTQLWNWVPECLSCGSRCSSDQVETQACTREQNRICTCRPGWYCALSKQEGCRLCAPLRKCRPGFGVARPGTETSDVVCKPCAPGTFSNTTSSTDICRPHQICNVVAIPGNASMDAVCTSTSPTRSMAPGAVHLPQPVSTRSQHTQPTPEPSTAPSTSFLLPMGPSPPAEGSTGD
Described as above. As for the experimental part:
as §2, §3

Assay [6] concerns the target B1. Described as above. Here is the method: as §2, §3
The target of assay [7] is T4, DR4 immunoadhesin (human, UniProt O00220 24-239, limits assumed).
T4 construct: extracellular domain; also called DR4-IgG; not shown: hinge and Fc portion of human IgG, as described in Ashkenazi et al. 1991
T4 sequence (looked up): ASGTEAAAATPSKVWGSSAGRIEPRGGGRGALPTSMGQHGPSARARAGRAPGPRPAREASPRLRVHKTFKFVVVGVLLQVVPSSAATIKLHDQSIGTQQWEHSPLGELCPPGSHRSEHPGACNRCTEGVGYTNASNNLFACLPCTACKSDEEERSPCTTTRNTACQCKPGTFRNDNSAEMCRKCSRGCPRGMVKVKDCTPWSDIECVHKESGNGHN
Described as above. As for the experimental part: as §2, §3

The target in assay [8] is T5, Apo-3 immunoadhesin (human, UniProt Q93038 25-199).
T5 construct: extracellular domain; also called Apo-3-IgG; DR3; not shown: hinge and Fc portion of human IgG, as described in Ashkenazi et al. 1991
T5 sequence (looked up): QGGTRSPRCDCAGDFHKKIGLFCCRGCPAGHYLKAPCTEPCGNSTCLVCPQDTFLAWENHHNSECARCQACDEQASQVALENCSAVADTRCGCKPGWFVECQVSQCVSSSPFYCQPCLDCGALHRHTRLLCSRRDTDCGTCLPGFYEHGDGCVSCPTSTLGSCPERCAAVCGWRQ
The assay is described as above. Here is the method: as §2, §3

Assay [9] deals with B2. Kind of assay: FACS on 293 cells transiently transfected with full-length DNA19355. As for the experimental part:
In another assay, human 293 cells were transiently transfected with full-length DNA19355 and the ability of receptor immunoadhesin constructs for PRO364, TNFR1, HVEM, and DcR1 to t bind to those transfected cells was determined by FACS analysis. The 293 cells were maintained in high glucose DMEM media supplemented with 10% fetal bovine serum (FBS), 2 mM glutamine, 100 microgram/ml penicillin, and 100 microgram/ml streptomycin. The transfected cells (1×10⁵) were incubated for 60 minutes at 4° C. in 200 microliters 2% FBS/PBS with 1 microgram of the respective receptor or ligand immunoadhesin. The cells were then washed with 2% FBS/PBS, stained with R-phycoerythrin-conjugated goat anti-human antibody (Jackson Immunoresearch, West Grove, Pa.). Next, the cells were analyzed by FACS. To test the binding of the respective immunoadhesins to the transiently transfected cells, an expression vector (pRK5-CD4; Smith et al., Science, 328:1704-1707 (1987)) for CD4 was co-transfected with DNA19355 expression vector (see above). FITC-conjugated anti-CD4 (Pharmingen, San Diego, Calif.) was then used to identify and gate the transfected cell population in the FACS analysis.

B1: in [1], the binding result is recorded as “no binding”.
B2: the binding result in [2] was “no binding”.

B3: soluble DNA19355 polypeptide (ECD, His10-tagged, 125I-labeled) (ligand)
chain: MGHHHHHHHHHHSSGHIDDDDKHMETAKEPCMAKFGPLPSKWQMASSEPPCVNKVSDWKLEILQNGLYLIYGQVAPNANYNDVAPFEVRLYKNKDMIQTLTNKSKIQNVGGTYELHVGDTIDLIFNSEHQVLKNNTYWGIILLANPQFIS
modifications: 125I-labeled (radioiodinated)
notes: Expressed in E. coli and purified on Nickel-sepharose; Removal of the tag is not reported; also called soluble DNA19355 ECD molecule; radioiodinated DNA19355 polypeptide
Regarding B3, the binding result in assay [3], in [4], in assay [5], in assay [6], in [7] and in assay [8] was “no binding” in each case.

B4: PRO364-IgG (PRO364 extracellular domain immunoadhesin) (Fc fusion)
chain: QRPTGGPGCGPGRLLLGTGTDARCCRVHTTRCCRDYPGEECCSEWDCMCVQPEFHCGDPCCTTCRHHPCPPGQGVQSQGKFSFGFQCIDCASGTFSGGHEGHCKPWTDCTQFGFLTVFPGNKTHNAVCVPGSPPAE
notes: Expressed in insect cells with Baculovirus; also called PRO364 immunoadhesin; PRO364 ECD C-terminus IgG-Fc tagged form; not shown: IgG Fc fused at the C-terminus
For B4, the binding result in [9] is given as “binds”.
